Laboratory results published in paper PMC1594584.
Where “and” joins values, the source holds several entries; their conditions need not be identical. Equal entries are not always repeated.

Tests used:
[1] = molecular target: AβMRF (met-Aβ42-HA-M-3xHA-RF; Aβ42 fused to the N terminus of Sup35p MRF) (not stated | S. cerevisiae) (UniProt P05453); assay: SDS electrophoresis of SDS-stable oligomers with immunoblot; yeast lysates treated with 1% SDS for 7 min at room temperature, resolved in 1.5% agarose or 7.5% polyacrylamide gels, blotted with anti-RF (BE4) or anti-Aβ (6E10); cells also grown with 6.3 mM guanidine or with HSP104 deleted; densitometry
[2] = molecular target: Aβ42 F19,20T/I31P MRF (AβMRF carrying the triple mutation Phe19,20Thr and Ile31Pro in its Aβ42 portion) (not stated | S. cerevisiae) (UniProt P05453); assay: as above

Row | Substance | monomer's share of the pool (HSP104 WT cells) [1] [%] | monomer's share of the pool (hsp104Δ cells) [1] [%] | stoichiometry N [1] | stoichiometry N [2]
1 | AβMRF (met-Aβ42-HA-M-3xHA-RF; Aβ42 fused to the N terminus of Sup35p MRF) (from UniProt P05453 124-685) | 34 | 47 | 2 and 3 and 4 | –
2 | Aβ42 F19,20T/I31P MRF (AβMRF carrying the triple mutation Phe19,20Thr and Ile31Pro in its Aβ42 portion) (from UniProt P05453 124-685) | – | – | – | 2
